According to the RNAGym collection of RNA variant scans (doi:10.7554/elife.80360):

B1: CPEB3 Ribozyme (parent)
chain: GGGGGCCACAGCAGAAGCGUUCACGUCGCGGCCCCUGUCAGAUUCUGGUGAAUCUGCGAAUUCUGCUGU

Variants of: B1
Test: self-cleavage, relative activity (ratio to wild type); higher = more cleavage; co-transcriptional

| Variant | self-cleavage |
| --- | --- |
| GGGGGCCACAGCACAAGCGUUCUCGUCGCGGCCCCUGUCAGAUUCUGGUGAAUCUGCGAAUUCUGCUGU [G14C A23U] | 0.761 |
| GGGGGCCACAGCAAAAGCGUUCACGUCGCGGCCCCUGUCAGAUUCUGGUGAAUCUGCGAAUUCCGCUGU [G14A U64C] | 0.346 |
| GGGGGCCACAGCAAAAGCGUUCACGUCGCGGCCCCUGUCAGAUUCUGGUGAAUCUGCGAAUUCGGCUGU [G14A U64G] | 0.576 |
| GGGGGCCACAGCACAAGCGUUCACGUCGCGGCCCCUGUCAGAUUCUGGUGAGUCUGCGAAUUCUGCUGU [G14C A52G] | 0.57 |
| GGGGGCCACAGCACAAGCAUUCACGUCGCGGCCCCUGUCAGAUUCUGGUGAAUCUGCGAAUUCUGCUGU [G14C G19A] | 0.136 |
| GGGGGCCACAGCACAAGCGUUCACGUCGCGGCCCCUGUCCGAUUCUGGUGAAUCUGCGAAUUCUGCUGU [G14C A40C] | 0.183 |
| GGGGGCCACAGCACAAGCGUUCACGUCGCGGCCCCUGUCGGAUUCUGGUGAAUCUGCGAAUUCUGCUGU [G14C A40G] | 0.324 |
| GGGGGCCACAGCACAAGCGUUCACGUCGCGGCGCCUGUCAGAUUCUGGUGAAUCUGCGAAUUCUGCUGU [G14C C33G] | 0.293 |
| GGGGGCCACAGCACAAGCGUUCACGUCGCGGCACCUGUCAGAUUCUGGUGAAUCUGCGAAUUCUGCUGU [G14C C33A] | 0.413 |
| GGGGGCCACAGCACAAGCGUUCACGUCGCGGCUCCUGUCAGAUUCUGGUGAAUCUGCGAAUUCUGCUGU [G14C C33U] | 0.636 |
| GGGGGCCACAGCACAAGCGUUCACGUCGCGGCCCCUGUCAGAUUCUGGUGAAUCUGCGAGUUCUGCUGU [G14C A60G] | 0.265 |
| GGGGGCCACAGCACAAGCGUUCACGUAGCGGCCCCUGUCAGAUUCUGGUGAAUCUGCGAAUUCUGCUGU [G14C C27A] | 0.146 |
| GGGGGCCACAGCACAAGCGUUCACGUGGCGGCCCCUGUCAGAUUCUGGUGAAUCUGCGAAUUCUGCUGU [G14C C27G] | 0.159 |
| GGGGGCCACAGCACAAGCGUUCACGUUGCGGCCCCUGUCAGAUUCUGGUGAAUCUGCGAAUUCUGCUGU [G14C C27U] | 0.14 |
| GGGGGCCACAGCAAAAGCGUUCACGUCGCGGCCCCCGUCAGAUUCUGGUGAAUCUGCGAAUUCUGCUGU [G14A U36C] | 0.442 |
| GGGGGCCACAGCAAAAGCGUUCACGUCGCGGCCCCAGUCAGAUUCUGGUGAAUCUGCGAAUUCUGCUGU [G14A U36A] | 0.0973 |
| GGGGGCCACAGCACAAGCGUUCACGUCGCGGCCCCUGUCAGAUUCUGGUGAAUGUGCGAAUUCUGCUGU [G14C C54G] | 0.251 |
| GGGGGCCACAGCACAAGCGUUCACGUCGCGGCCCCUGUCAGAUUCUGGUGAAUUUGCGAAUUCUGCUGU [G14C C54U] | 0.544 |
| GGGGGCCACAGCACAAGCGUUCACGUCGCGGCCCCUGUCAGAUUCUGGUGAAUCUGCGUAUUCUGCUGU [G14C A59U] | 0.263 |
| GGGGGCCACAGCACAAGCGUUCACGUCGCGGCCCCUGUCAGAUUCUGGUGAAUCUGCGCAUUCUGCUGU [G14C A59C] | 0.262 |

| Variant | self-cleavage |
| --- | --- |
| GGGGGCCACAGCACAAGCGUUCACGUCGCGGCCCCUGUAAGAUUCUGGUGAAUCUGCGAAUUCUGCUGU [G14C C39A] | 0.225 |
| GGGGGCCACAGCACAAGCGUUCACGUCGCGGCCCCUGUGAGAUUCUGGUGAAUCUGCGAAUUCUGCUGU [G14C C39G] | 0.248 |
| GGGGGCCACAGCACAAGCGUUCACGUCGCGGCCCCUGUUAGAUUCUGGUGAAUCUGCGAAUUCUGCUGU [G14C C39U] | 0.286 |
| GGGGGCCACAGCACAAGCGUUCAUGUCGCGGCCCCUGUCAGAUUCUGGUGAAUCUGCGAAUUCUGCUGU [G14C C24U] | 0.175 |
| GGGGGCCACAGCAAAAGCGUUCACGUCGCGGCCCCUGUCAGAUUCUGGCGAAUCUGCGAAUUCUGCUGU [G14A U49C] | 0.646 |
| GGGGGCCACAGCACAAGCGUUCACGUCGUGGCCCCUGUCAGAUUCUGGUGAAUCUGCGAAUUCUGCUGU [G14C C29U] | 0.163 |
| GGGGGCCACAGCACAAGCGUUCACGUCGAGGCCCCUGUCAGAUUCUGGUGAAUCUGCGAAUUCUGCUGU [G14C C29A] | 0.0734 |
| GGGGGCCACAGCACAAGCGUUCACGUCGGGGCCCCUGUCAGAUUCUGGUGAAUCUGCGAAUUCUGCUGU [G14C C29G] | 0.172 |
| GGGGGCCACAGCACAAGCGUUAACGUCGCGGCCCCUGUCAGAUUCUGGUGAAUCUGCGAAUUCUGCUGU [G14C C22A] | 0.142 |
| GGGGGCCACAGCACAAGCGUUUACGUCGCGGCCCCUGUCAGAUUCUGGUGAAUCUGCGAAUUCUGCUGU [G14C C22U] | 0.0705 |
| GGGGGCCACAGCACAAGCGUUGACGUCGCGGCCCCUGUCAGAUUCUGGUGAAUCUGCGAAUUCUGCUGU [G14C C22G] | 0.122 |
| GGGGGCCACAGCAAAAGCGUUCACGUCGCGGCCCCUGUCAGAUUCUGGUGAAUCGGCGAAUUCUGCUGU [G14A U55G] | 0.172 |
| GGGGGCCACAGCAAAAGCGUUCACGUCGCGGCCCCUGUCAGAUUCUGGUGAAUCCGCGAAUUCUGCUGU [G14A U55C] | 0.281 |
| GGGGGCCACAGCACAAGCGUUCACGUCGCGGCCGCUGUCAGAUUCUGGUGAAUCUGCGAAUUCUGCUGU [G14C C34G] | 0.236 |
| GGGGGCCACAGCACAAGCGUUCACGUCGCGGCCACUGUCAGAUUCUGGUGAAUCUGCGAAUUCUGCUGU [G14C C34A] | 0.406 |
| GGGGGCCACAGCAAAAGCGUUCACGUCGCGGCCCCUGUCAGAUUCUGGUGAACCUGCGAAUUCUGCUGU [G14A U53C] | 0.273 |
| GGGGGCCACAGCAAAAGCGUUCACGUCGCGGCCCCUGACAGAUUCUGGUGAAUCUGCGAAUUCUGCUGU [G14A U38A] | 0.478 |
| GGGGGCCACAGCACAAGCGUUCACGUCGCGGCCCGUGUCAGAUUCUGGUGAAUCUGCGAAUUCUGCUGU [G14C C35G] | 0.191 |
| GGGGGCCACAGCACAAGCGUUCACGUCGCGGCCCUUGUCAGAUUCUGGUGAAUCUGCGAAUUCUGCUGU [G14C C35U] | 0.464 |
